Results as given in article PMC9166766 (2022).
No end group written: not given here. *: point of attachment. Biotin = O=C1N[C@H]2[C@H](CS[C@H]2CCCCC(=O)*)N1

Molecular target: His6-tagged CNA (isoform not told) (UniProt P16298 1-524)
Test: SPR

**Q.** For Biotin-AAAMAGFPPEITVTPPTP [biotin-labeled CABIN1-L-1 peptide], which Kd is on record?
**A.** 0.512 µM
